Legend:
[1] = target: Isoform 121 of human VEGF-A (Peprotech) (human) (UniProt P15692); assay: ELISA, antigen coated at 5 µg/mL, KDR-Fc 1.0 µg/mL
[2] = target: Isoform 121 of human VEGF-A (Peprotech) (human) (UniProt P15692); assay: ELISA, antigen coated at 5 µg/mL, KDR-Fc 0.125 µg/mL
[3] = target: Isoform 121 of human VEGF-A (Peprotech) (human) (UniProt P15692); assay: ELISA, antigen coated at 5 µg/mL, KDR-Fc 0.5 µg/mL
[4] = target: Isoform 121 of human VEGF-A (Peprotech) (human) (UniProt P15692); assay: ELISA, antigen coated at 5 µg/mL, KDR-Fc 0.25 µg/mL
[5] = target: Isoform 121 of human VEGF-A (Peprotech) (human) (UniProt P15692); assay: ELISA on coated antigen, 20 µg/mL; negative control
[6] = target: P6447aa-VEGF fusion protein (human (VEGF part); Neisseria meningitidis (P64K part)); assay: as above

Sequence of soluble human receptor KDR-Fc (Sigma) (P35968 20-764 limits assumed): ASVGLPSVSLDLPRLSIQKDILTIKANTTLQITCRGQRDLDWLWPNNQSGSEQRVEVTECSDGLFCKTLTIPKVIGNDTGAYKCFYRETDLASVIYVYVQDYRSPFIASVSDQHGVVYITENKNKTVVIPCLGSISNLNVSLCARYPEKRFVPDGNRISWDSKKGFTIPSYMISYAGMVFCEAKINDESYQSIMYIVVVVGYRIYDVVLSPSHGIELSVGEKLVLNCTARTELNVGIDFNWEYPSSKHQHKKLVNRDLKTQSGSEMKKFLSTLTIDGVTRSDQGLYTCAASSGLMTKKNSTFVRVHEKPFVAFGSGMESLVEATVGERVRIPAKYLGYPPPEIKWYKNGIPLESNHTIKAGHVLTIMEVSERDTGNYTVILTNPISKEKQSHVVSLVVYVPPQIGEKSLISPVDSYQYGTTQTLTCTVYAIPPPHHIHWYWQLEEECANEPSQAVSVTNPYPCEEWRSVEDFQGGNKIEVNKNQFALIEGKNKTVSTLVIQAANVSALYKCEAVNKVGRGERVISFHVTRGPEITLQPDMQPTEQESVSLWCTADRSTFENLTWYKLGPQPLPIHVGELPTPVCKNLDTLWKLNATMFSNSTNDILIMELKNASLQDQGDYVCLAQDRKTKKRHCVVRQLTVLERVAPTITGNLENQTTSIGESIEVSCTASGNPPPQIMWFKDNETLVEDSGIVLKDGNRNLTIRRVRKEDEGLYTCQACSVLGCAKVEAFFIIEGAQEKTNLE
Sequence of Isoform 121 of human VEGF-A (Peprotech) (human) (P15692 other isoform, or with tags, fused parts or gaps): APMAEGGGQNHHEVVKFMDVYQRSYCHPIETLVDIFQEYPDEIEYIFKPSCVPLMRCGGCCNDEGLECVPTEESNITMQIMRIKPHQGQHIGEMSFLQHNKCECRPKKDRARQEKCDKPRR

Row | Substance | absorbance at 492 nm [1] | absorbance at 492 nm [2] | absorbance at 492 nm [3] | absorbance at 492 nm [4] | absorbance at 492 nm [5] | absorbance at 492 nm [6]
1 | soluble human receptor KDR-Fc (Sigma) (from UniProt P35968 20-764) (Fc fusion) | 1.48 OD 492 nm | 0.76 OD 492 nm | 1.27 OD 492 nm | 1.04 OD 492 nm |  | 
2 | TheraCIM (anti EGF receptor humanized IgG1 antibody; CIMAB SA, Havana) |  |  |  |  | 0.097 OD 492 nm | 0.112 OD 492 nm
